Drawing on article PMC12990809, this text covers binding signal (z-score (mean of top ten 7-mers)) for nine substances.

What all share (experiment): pulldown
Series [1] addresses T1, TVAG_371220 (Trichomonas vaginalis) (UniProt A2FYE4).
T1 sequence: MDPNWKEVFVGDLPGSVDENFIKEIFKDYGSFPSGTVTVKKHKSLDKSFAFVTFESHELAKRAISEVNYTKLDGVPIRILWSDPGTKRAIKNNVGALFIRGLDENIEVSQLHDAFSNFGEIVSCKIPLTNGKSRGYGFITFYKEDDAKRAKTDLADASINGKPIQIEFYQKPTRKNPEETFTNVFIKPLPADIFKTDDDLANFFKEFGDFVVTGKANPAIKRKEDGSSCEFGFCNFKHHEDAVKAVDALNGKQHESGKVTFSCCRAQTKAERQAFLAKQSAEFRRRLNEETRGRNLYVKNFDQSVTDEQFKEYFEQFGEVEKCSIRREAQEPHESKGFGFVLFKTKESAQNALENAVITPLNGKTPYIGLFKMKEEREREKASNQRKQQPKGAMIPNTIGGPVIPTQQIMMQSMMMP
Conditions: 20 nM protein, 1.5 uM RNA pool; 20 mM HEPES pH 7.8, 70 mM KCl, 10 mM NaCl, 10% glycerol, 2 mM DTT, 0.1 ug/uL BSA; 30 min, 4 C.

Series [2] addresses T2, LmjF.25.0080 (Leishmania major) (UniProt Q4QA88).
T2 sequence: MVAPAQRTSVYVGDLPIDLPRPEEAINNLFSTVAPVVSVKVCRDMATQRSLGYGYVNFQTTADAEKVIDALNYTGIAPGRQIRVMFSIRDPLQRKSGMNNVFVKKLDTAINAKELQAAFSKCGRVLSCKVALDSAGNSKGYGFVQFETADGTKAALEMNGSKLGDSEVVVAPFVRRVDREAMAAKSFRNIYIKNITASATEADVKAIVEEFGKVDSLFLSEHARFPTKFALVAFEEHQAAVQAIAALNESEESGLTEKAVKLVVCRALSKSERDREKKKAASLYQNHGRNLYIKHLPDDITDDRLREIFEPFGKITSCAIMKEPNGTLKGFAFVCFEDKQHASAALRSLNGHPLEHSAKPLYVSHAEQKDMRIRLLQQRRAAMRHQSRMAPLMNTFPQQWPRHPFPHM
To be noted: 20 nM protein, 1.5 uM RNA pool; 20 mM HEPES pH 7.8, 70 mM KCl, 10 mM NaCl, 10% glycerol, 2 mM DTT, 0.1 ug/uL BSA; 30 min, 4 C.

For series [3], the target named is T3, PK27183.1 (Cannabis sativa) (UniProt A0A7J6I1V8).
T3 sequence: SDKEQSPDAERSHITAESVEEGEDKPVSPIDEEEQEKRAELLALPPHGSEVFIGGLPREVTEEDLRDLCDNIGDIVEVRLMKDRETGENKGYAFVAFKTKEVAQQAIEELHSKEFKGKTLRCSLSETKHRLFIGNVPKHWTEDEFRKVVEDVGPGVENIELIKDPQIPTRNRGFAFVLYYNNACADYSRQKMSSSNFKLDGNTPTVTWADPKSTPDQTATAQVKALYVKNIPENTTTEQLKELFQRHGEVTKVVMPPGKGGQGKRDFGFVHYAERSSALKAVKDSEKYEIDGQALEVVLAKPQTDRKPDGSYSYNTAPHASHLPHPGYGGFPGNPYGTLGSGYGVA
Conditions: 20 nM protein, 1.5 uM RNA pool; 20 mM HEPES pH 7.8, 70 mM KCl, 10 mM NaCl, 10% glycerol, 2 mM DTT, 0.1 ug/uL BSA; 30 min, 4 C.

The target of series [4] is e_gw1.13.00.297.1 (Ostreococcus tauri) (UniProt A0A096P8F1). To be noted: 20 nM protein, 1.5 uM RNA pool; 20 mM HEPES pH 7.8, 70 mM KCl, 10 mM NaCl, 10% glycerol, 2 mM DTT, 0.1 ug/uL BSA; 30 min, 4 C.
Chain of e_gw1.13.00.297.1 (Ostreococcus tauri) (A0A096P8F1 entry or part of it): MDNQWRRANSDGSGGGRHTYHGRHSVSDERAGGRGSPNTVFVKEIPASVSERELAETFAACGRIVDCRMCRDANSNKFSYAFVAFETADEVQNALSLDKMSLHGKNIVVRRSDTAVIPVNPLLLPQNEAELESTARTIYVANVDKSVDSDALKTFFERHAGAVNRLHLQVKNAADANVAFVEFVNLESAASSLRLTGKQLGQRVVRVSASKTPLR
Series [5] deals with T4, aret (Drosophila melanogaster) (UniProt E1JHG6).
T4 sequence: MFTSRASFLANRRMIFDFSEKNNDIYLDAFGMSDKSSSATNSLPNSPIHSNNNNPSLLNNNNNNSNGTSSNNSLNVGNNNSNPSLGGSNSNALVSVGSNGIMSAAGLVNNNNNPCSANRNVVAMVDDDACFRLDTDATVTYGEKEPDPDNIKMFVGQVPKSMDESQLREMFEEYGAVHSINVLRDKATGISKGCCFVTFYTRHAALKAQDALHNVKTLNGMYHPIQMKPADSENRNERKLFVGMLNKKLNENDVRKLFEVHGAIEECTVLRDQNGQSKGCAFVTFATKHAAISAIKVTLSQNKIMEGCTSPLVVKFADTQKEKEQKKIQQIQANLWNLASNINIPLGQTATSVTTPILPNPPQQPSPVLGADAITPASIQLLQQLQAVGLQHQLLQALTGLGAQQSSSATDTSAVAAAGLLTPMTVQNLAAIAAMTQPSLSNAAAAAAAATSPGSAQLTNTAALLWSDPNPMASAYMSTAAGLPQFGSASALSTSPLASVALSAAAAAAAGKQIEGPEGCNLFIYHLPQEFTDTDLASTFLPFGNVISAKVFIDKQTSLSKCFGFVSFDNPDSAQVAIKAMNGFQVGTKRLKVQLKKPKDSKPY
Conditions: 20 nM protein, 1.5 uM RNA pool; 20 mM HEPES pH 7.8, 70 mM KCl, 10 mM NaCl, 10% glycerol, 2 mM DTT, 0.1 ug/uL BSA; 30 min, 4 C (protocol of this paper; not …); cited from earlier work.

Another series has as its target T5, tardbpl (Danio rerio) (UniProt A0A8M1PDP8).
T5 sequence: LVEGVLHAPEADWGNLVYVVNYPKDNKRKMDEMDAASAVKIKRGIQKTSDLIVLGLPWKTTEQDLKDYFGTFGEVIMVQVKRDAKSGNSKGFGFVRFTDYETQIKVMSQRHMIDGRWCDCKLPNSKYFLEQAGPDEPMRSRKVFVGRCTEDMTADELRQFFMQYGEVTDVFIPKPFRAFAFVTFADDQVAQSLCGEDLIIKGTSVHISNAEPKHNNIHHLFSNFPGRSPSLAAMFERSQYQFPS
Conditions: 20 nM protein, 1.5 uM RNA pool; 20 mM HEPES pH 7.8, 70 mM KCl, 10 mM NaCl, 10% glycerol, 2 mM DTT, 0.1 ug/uL BSA; 30 min, 4 C.

For series [6], the target named is T6, qkr58E-2 (Drosophila melanogaster) (UniProt Q5BID2).
T6 sequence: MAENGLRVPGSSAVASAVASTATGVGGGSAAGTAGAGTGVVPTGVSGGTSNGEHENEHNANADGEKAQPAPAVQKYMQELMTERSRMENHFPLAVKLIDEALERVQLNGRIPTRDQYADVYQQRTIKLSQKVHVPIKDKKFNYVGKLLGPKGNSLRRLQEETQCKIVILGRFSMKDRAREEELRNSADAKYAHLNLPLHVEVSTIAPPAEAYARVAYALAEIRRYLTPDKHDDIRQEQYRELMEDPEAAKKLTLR
To be noted: 20 nM protein, 1.5 uM RNA pool; 20 mM HEPES pH 7.8, 70 mM KCl, 10 mM NaCl, 10% glycerol, 2 mM DTT, 0.1 ug/uL BSA; 30 min, 4 C.

The target in series [7] is T7, LmjF.27.2100 (Leishmania major) (UniProt E9ADJ0).
T7 sequence: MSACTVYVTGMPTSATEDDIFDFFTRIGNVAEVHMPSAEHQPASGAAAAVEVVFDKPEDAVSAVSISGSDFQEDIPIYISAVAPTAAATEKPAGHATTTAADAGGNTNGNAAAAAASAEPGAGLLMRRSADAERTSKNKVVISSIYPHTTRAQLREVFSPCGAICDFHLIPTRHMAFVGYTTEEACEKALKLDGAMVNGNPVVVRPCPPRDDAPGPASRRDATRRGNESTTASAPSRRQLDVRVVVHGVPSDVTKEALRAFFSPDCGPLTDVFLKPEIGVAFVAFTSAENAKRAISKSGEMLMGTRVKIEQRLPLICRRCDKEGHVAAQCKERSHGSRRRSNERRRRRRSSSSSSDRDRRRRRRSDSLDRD
To be noted: 20 nM protein, 1.5 uM RNA pool; 20 mM HEPES pH 7.8, 70 mM KCl, 10 mM NaCl, 10% glycerol, 2 mM DTT, 0.1 ug/uL BSA; 30 min, 4 C.

The target in series [8] is T8, SCHCODRAFT_80278 (Schizophyllum commune) (UniProt A0ACF2ERL4).
T8 sequence: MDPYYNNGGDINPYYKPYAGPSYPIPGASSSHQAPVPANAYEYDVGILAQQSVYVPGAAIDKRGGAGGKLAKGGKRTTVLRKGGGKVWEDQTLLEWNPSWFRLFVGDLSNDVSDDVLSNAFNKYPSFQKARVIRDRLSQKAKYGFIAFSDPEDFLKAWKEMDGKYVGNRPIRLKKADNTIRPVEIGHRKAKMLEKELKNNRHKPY
To be noted: 20 nM protein, 1.5 uM RNA pool; 20 mM HEPES pH 7.8, 70 mM KCl, 10 mM NaCl, 10% glycerol, 2 mM DTT, 0.1 ug/uL BSA; 30 min, 4 C.

As to AAAAAAG [RNAcompete motif RNCMPT00623], the binding signal (z-score (mean of top ten 7-mers)) in series [1] was 11.9.
In series [2], AGAAAA [RNAcompete motif RNCMPT00688] showed a binding signal (z-score (mean of top ten 7-mers)) of 9.16.
Regarding AGACACA [RNAcompete motif RNCMPT00685], in [3], the binding signal (z-score (mean of top ten 7-mers)) came to 13.3.
Turning to AAUAAG [RNAcompete motif RNCMPT00681], in series [4], the binding signal (z-score (mean of top ten 7-mers)) came to 20.7.
In the case of UNUGUGU [RNAcompete motif RNCMPT00003], the binding signal (z-score (mean of top ten 7-mers)) in [5] is 21.4.
Take UGAAUG [RNAcompete motif RNCMPT00683]: in the series with tardbpl (Danio rerio), the binding signal (z-score (mean of top ten 7-mers)) is 11.3.
With AUAAUA [RNAcompete motif RNCMPT00637], the binding signal (z-score (mean of top ten 7-mers)) in series [6] came to 13.
Turning to GGAGGA [RNAcompete motif RNCMPT00667], the binding signal (z-score (mean of top ten 7-mers)) in [7] stood at 6.1.
Consider AACUAC [RNAcompete motif RNCMPT00678], for which the binding signal (z-score (mean of top ten 7-mers)) in series [8] amounted to 13.6.
